Reference: article PMC8229532 (Structure (London, England : 1993), 2010)

Molecular target: the molecule itself
Assay: crystal structure

B1: Phd (prevents host death) antitoxin of bacteriophage P1 (natural protein, UniProt Q06253 1-73, looked up)
chain: MQSINFRTARGNLSEVMNNVEAGEEVEITRRGREPAVIASKATFEAYKKAALDAEFASLFDTLDSTNKELVNR
modifications: selenomethionine (expressed in MJ9 minimal medium supplemented with selenomethionine)
**Q.** Does B1 bind?
**A.** binds
